Test results as given in publication PMC5943350.

Legend:
human TNF-α (human) = human TNF-α (human) (UniProt P01375)
[1] = target: TNFRII-Trimer fusion protein (homotrimeric soluble human TNF receptor II fused to the Trimer-Tag, the C-propeptide of human α1(III) collagen) (human) (UniProt P20333); assay: SEC + other: non-reducing SDS-PAGE; purified TNFRII-Trimer on 10% SDS-PAGE under non-reducing or reducing conditions (Coomassie; Western blot under non-reducing conditions too) and SEC-HPLC (Sepax Zenix-C SEC-300, OD280), TNFRII-Fc as dimeric control

Sequence of UniProt P01375 (P01375 77-233): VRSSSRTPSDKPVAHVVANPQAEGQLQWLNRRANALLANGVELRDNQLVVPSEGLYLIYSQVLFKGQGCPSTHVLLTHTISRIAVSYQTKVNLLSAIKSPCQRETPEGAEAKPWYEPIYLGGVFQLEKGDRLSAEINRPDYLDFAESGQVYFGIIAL

Substance | IC50 of neutralisation of TNF-α (2.5 ng/mL)-induced cytotoxicity in L929 cells, MTT assay, molar basis (human TNF-α (human)) [pM] | IC50 of neutralisation of TNF-α (2.5 ng/mL)-induced cytotoxicity in L929 cells, MTT assay, weight basis (human TNF-α (human)) [µg/mL] | stoichiometry N [1]
TNFRII-Fc (dimeric soluble human TNFRII receptor-Fc fusion) (from UniProt P20333 23-257) | 98.6 | 0.0101 | –
TNFRII-Trimer fusion protein (homotrimeric soluble human TNF receptor II fused to the Trimer-Tag, the C-propeptide of human α1(III) collagen) (from UniProt P20333 23-256) | – | – | 3
